Test results taken from US20180044653A1, “Mutant Yeast Strain Capable of Degrading Cellobiose” (Institut National de la Recherche Agronomique, priority 2015, published 2018).

Legend:
[1] = substrate: OC[C@H]1O[C@@H](O[C@H]2[C@H](O)[C@@H](CO)OC(O)[C@@H]2O)[C@H](O)[C@@H](O)[C@@H]1O; experiment: purified protein, by the assay type; settings: other: apparent; 0.13 nM Bgl2; released glucose; mean of three experiments, SD below 10%
[2] = substrate: OC[C@H]1O[C@@H](O[C@H]2[C@H](O)[C@@H](O)[C@H](O[C@H]3[C@H](O)[C@@H](O)[C@H](O[C@H]4[C@H](O)[C@@H](O)C(O)O[C@@H]4CO)O[C@@H]3CO)O[C@@H]2CO)[C@H](O)[C@@H](O)[C@@H]1O; experiment: purified protein, by the assay type; settings: other: apparent; 0.13 nM Bgl2; released glucose; mean of three experiments, SD below 10%
[3] = substrate: OC[C@H]1O[C@@H](O[C@H]2[C@H](O)[C@@H](O)[C@H](O[C@H]3[C@H](O)[C@@H](O)C(O)O[C@@H]3CO)O[C@@H]2CO)[C@H](O)[C@@H](O)[C@@H]1O; experiment: purified protein, by the assay type; settings: other: apparent; 0.13 nM Bgl2; released glucose; mean of three experiments, SD below 10%
[4] = substrate: OC[C@H]1O[C@@H](OC[C@H]2OC(O)[C@H](O)[C@@H](O)[C@@H]2O)[C@H](O)[C@@H](O)[C@@H]1O; experiment: purified protein, by the assay type; settings: other: apparent; 0.13 nM Bgl2; released glucose; mean of three experiments, SD below 10%
[5] = substrate: OC[C@H]1O[C@@H](O[C@H]2[C@H](O)[C@@H](O)[C@H](O[C@H]3[C@H](O)[C@@H](O)[C@H](O[C@H]4[C@H](O)[C@@H](O)[C@H](O[C@H]5[C@H](O)[C@@H](O)[C@H](O[C@H]6[C@H](O)[C@@H](O)C(O)O[C@@H]6CO)O[C@@H]5CO)O[C@@H]4CO)O[C@@H]3CO)O[C@@H]2CO)[C@H](O)[C@@H](O)[C@@H]1O; experiment: purified protein, by the assay type; settings: other: apparent; 0.13 nM Bgl2; released glucose; mean of three experiments, SD below 10%
[6] = substrate: OC[C@H]1O[C@@H](O[C@H]2C(O)O[C@H](CO)[C@@H](O)[C@@H]2O)[C@H](O)[C@@H](O)[C@@H]1O; experiment: purified protein, by the assay type; settings: other: apparent; 0.13 nM Bgl2; released glucose; mean of three experiments, SD below 10%
[7] = substrate: OC[C@H]1O[C@@H](O[C@H]2[C@H](O)[C@@H](O)[C@H](O[C@H]3[C@H](O)[C@@H](O)[C@H](O[C@H]4[C@H](O)[C@@H](O)[C@H](O[C@H]5[C@H](O)[C@@H](O)C(O)O[C@@H]5CO)O[C@@H]4CO)O[C@@H]3CO)O[C@@H]2CO)[C@H](O)[C@@H](O)[C@@H]1O; experiment: Enzyme kinetics on glycoside substrates, released glucose, Michaelis-Menten (Bgl2); format: biochemical, Yarrowia lipolytica; settings: other: apparent, 0.13 nM Bgl2, mean of three experiments, SD below 10%
[8] = substrate: CCCCCCCCO[C@@H]1O[C@H](CO)[C@@H](O)[C@H](O)[C@H]1O; experiment: as above; format: biochemical, Yarrowia lipolytica; settings: other: apparent, 0.13 nM Bgl2, mean of three experiments, SD below 10%
[9] = substrate: OC[C@H]1O[C@@H](O[C@H]2[C@H](O)[C@@H](O)C(O)O[C@@H]2CO)[C@H](O)[C@@H](O)[C@@H]1O; experiment: as above; format: biochemical, Yarrowia lipolytica; settings: other: apparent, 0.13 nM Bgl2, mean of three experiments, SD below 10%
[10] = substrate: OC[C@H]1O[C@@H](O[C@H]2[C@H](O)[C@@H](O)[C@H](O[C@H]3[C@H](O)[C@@H](O)[C@H](O[C@H]4[C@H](O)[C@@H](O)[C@H](O[C@H]5[C@H](O)[C@@H](O)C(O)O[C@@H]5CO)O[C@@H]4CO)O[C@@H]3CO)O[C@@H]2CO)[C@H](O)[C@@H](O)[C@@H]1O; experiment: Enzyme kinetics on glycoside substrates, released glucose, Michaelis-Menten (Bgl1-His6); format: biochemical, Yarrowia lipolytica; settings: other: apparent, 0.120 nM Bgl1-His6, mean of three experiments, SD below 10%, pH 7.4, 28.0 °C
Description: (§1) Y. lipolytica JMY1212 overproducing Bgl1-His6 and Bgl2 were grown in 200 mL YTD medium at 130 rpm, 28° C. for 36 h before centrifugation at 8,000×g for 5 min. For purification of Bgl1-His6, the cell pellet was washed, suspended in 50 mL phosphate buffer (50 mM, pH 7.4) and homogenized over a 3-min period using a MP FastPrep-24 Instrument. After centrifugation (8,000×g for 5 min at 4° C.), the supernatant was applied to 2 mL of TALON Metal Affinity Resin (Clontech Takara-Bio, Kyoto, Japan) and protein was eluted using imidazole buffer according to the manufacturer's instructions.
(§2) When using aryl-substrates, the standard assay method was employed, simply replacing pNPGlc by another substrate as appropriate. For oligosaccharides, the release of glucose was quantified using an enzyme kit (D-Fructose/D-Glucose Assay Kit, liquid stable, Megazyme). […] Initial rates were fitted to the Michaelis-Menten kinetic equation using a nonlinear regression (SigmaPlot 10) to extract the apparent KM and kcat (Segel, 1993).

[11] = substrate: OC[C@H]1O[C@@H](O[C@H]2[C@H](O)[C@@H](CO)OC(O)[C@@H]2O)[C@H](O)[C@@H](O)[C@@H]1O; experiment: as above; format: biochemical, Yarrowia lipolytica; settings: other: apparent, 0.120 nM Bgl1-His6, mean of three experiments, SD below 10%, pH 7.4, 28.0 °C
Description: as §1, §2

[12] = substrate: OC[C@H]1O[C@@H](O[C@H]2[C@H](O)[C@@H](O)[C@H](O[C@H]3[C@H](O)[C@@H](O)[C@H](O[C@H]4[C@H](O)[C@@H](O)C(O)O[C@@H]4CO)O[C@@H]3CO)O[C@@H]2CO)[C@H](O)[C@@H](O)[C@@H]1O; experiment: as above; format: biochemical, Yarrowia lipolytica; settings: other: apparent, 0.120 nM Bgl1-His6, mean of three experiments, SD below 10%, pH 7.4, 28.0 °C
Description: as §1, §2

[13] = substrate: OC[C@H]1O[C@@H](O[C@H]2[C@H](O)[C@@H](O)[C@H](O[C@H]3[C@H](O)[C@@H](O)C(O)O[C@@H]3CO)O[C@@H]2CO)[C@H](O)[C@@H](O)[C@@H]1O; experiment: as above; format: biochemical, Yarrowia lipolytica; settings: other: apparent, 0.120 nM Bgl1-His6, mean of three experiments, SD below 10%, pH 7.4, 28.0 °C
Description: as §1, §2

[14] = substrate: CCCCCCCCO[C@@H]1O[C@H](CO)[C@@H](O)[C@H](O)[C@H]1O; experiment: as above; format: biochemical, Yarrowia lipolytica; settings: other: apparent, 0.120 nM Bgl1-His6, mean of three experiments, SD below 10%, pH 7.4, 28.0 °C
Description: as §1, §2

[15] = substrate: OC[C@H]1O[C@@H](O[C@H]2[C@H](O)[C@@H](O)C(O)O[C@@H]2CO)[C@H](O)[C@@H](O)[C@@H]1O; experiment: as above; format: biochemical, Yarrowia lipolytica; settings: other: apparent, 0.120 nM Bgl1-His6, mean of three experiments, SD below 10%, pH 7.4, 28.0 °C
Description: as §1, §2

[16] = substrate: OC[C@H]1O[C@@H](OC[C@H]2OC(O)[C@H](O)[C@@H](O)[C@@H]2O)[C@H](O)[C@@H](O)[C@@H]1O; experiment: as above; format: biochemical, Yarrowia lipolytica; settings: other: apparent, 0.120 nM Bgl1-His6, mean of three experiments, SD below 10%, pH 7.4, 28.0 °C
Description: as §1, §2

[17] = substrate: OC[C@H]1O[C@@H](O[C@H]2[C@H](O)[C@@H](O)[C@H](O[C@H]3[C@H](O)[C@@H](O)[C@H](O[C@H]4[C@H](O)[C@@H](O)[C@H](O[C@H]5[C@H](O)[C@@H](O)[C@H](O[C@H]6[C@H](O)[C@@H](O)C(O)O[C@@H]6CO)O[C@@H]5CO)O[C@@H]4CO)O[C@@H]3CO)O[C@@H]2CO)[C@H](O)[C@@H](O)[C@@H]1O; experiment: as above; format: biochemical, Yarrowia lipolytica; settings: other: apparent, 0.120 nM Bgl1-His6, mean of three experiments, SD below 10%, pH 7.4, 28.0 °C
Description: as §1, §2

[18] = substrate: OC[C@H]1O[C@@H](O[C@H]2C(O)O[C@H](CO)[C@@H](O)[C@@H]2O)[C@H](O)[C@@H](O)[C@@H]1O; experiment: as above; format: biochemical, Yarrowia lipolytica; settings: other: apparent, 0.120 nM Bgl1-His6, mean of three experiments, SD below 10%, pH 7.4, 28.0 °C
Description: as §1, §2

B1: Yarrowia lipolytica β-glucosidase Bgl2 (YALI_BGL2, YALI0B14289g, SEQ ID NO: 6; mature SEQ ID NO: 2), native (Yarrowia lipolytica CLIB122) (protein)
chain: DPFSDKDAYKHSPPYYPAPEIGRVPTDLRWRAALKVAQGMVANMTLLEKVNITTGTGWEMGPCVGNTGTVERLGIKSLCLQDGPLGIRFADLITTFPAGITIASTFSRQLVRERGAAMGRENRRKGVDITLSPVVGPLGRHANGGRIWEGFSADPYLAGKLAAEAVTGIQGQNVMAVVKHMVGNEQEHFRQLGEWQGFGFKDLKQPLSSNIDDRTLNEAYLWPFADAVRANVGSVMCSYQQINGSQGCQNAHILNGKLKEEMGFQGFVMSDWLAQRSGVASVLAGLDMSMPGDGLVWADGVPLMGYELTRSVLNGTIDESRVDDMVTRILTPILYLSITPTDPNFSSWTNDTTSYKYYGAKAGGNVTVNRHIDVRDQYTTKAALDGANAALVLLKNEKKTLPLNPTNIGNLNIFGIGSKTGPLGAVCGENMQCSDGALIEGWGSGSVYPTDYQSPYDAIKERASKDNITIGGTTQSWGNLSNVEILSAAADASVVFVLSDSGESTGIVDGNIGDRNNLTLWHNGDEVVKAVASKNPNTIVVVTTVGPVNLEKWIDNPNVTAVLLTGPAGDFGGRAAASILFGDIAPSGKLPFTIAKNDTDYIPLTTKIPEDGLPQDYFTEGTLLDYKRFDENQVTPRFEFGYGLSYSNITVENLEARYAFPSIPEFLPTPFAPSNPNKPKNAFTPHANESVFPSDIDPLNKYVYPYLNDTSEIFSNETHYPYPEGYSSEQSNSTNINGGAVGGNPALWLSAVYIVHSVSNYGPYDTGVVTQMYIAFPQDNDDLKTAPRQLRGFERSELKVGERQGILYDVQWRDLAVWDVKLQSWRVQRGEYKVYVGHSSRDFVLTTSFTLK
Km [1]: 890 µM
kcat [1]: 211.1 s⁻¹
kcat/Km [1]: 237000 M⁻¹ s⁻¹
Km [2]: 1860 µM
kcat [2]: 20.6 s⁻¹
kcat/Km [2]: 11000 M⁻¹ s⁻¹
Km [3]: 990 µM
kcat [3]: 9.5 s⁻¹
kcat/Km [3]: 9600 M⁻¹ s⁻¹
Km [4]: 1840 µM
kcat [4]: 186.5 s⁻¹
kcat/Km [4]: 101000 M⁻¹ s⁻¹
Km [5]: 2370 µM
kcat [5]: 30.5 s⁻¹
kcat/Km [5]: 12900 M⁻¹ s⁻¹
Km [6]: 2400 µM
kcat [6]: 41.2 s⁻¹
kcat/Km [6]: 17200 M⁻¹ s⁻¹
Km [7]: 2240 µM
kcat [7]: 27.5 s⁻¹
kcat/Km [7]: 12300 M⁻¹ s⁻¹
Km [8]: 1300 µM
kcat [8]: 111.1 s⁻¹
kcat/Km [8]: 85200 M⁻¹ s⁻¹
Km [9]: 790 µM
kcat [9]: 5.1 s⁻¹
kcat/Km [9]: 6500 M⁻¹ s⁻¹

B2: Yarrowia lipolytica β-glucosidase Bgl1-His6 (YALI_BGL1, YALI0F16027g, SEQ ID NO: 4; mature SEQ ID NO: 1), His6-tagged (Yarrowia lipolytica CLIB122) (protein)
chain: SPDWYPTPEIGSITSDWADALGESMDILAQLTLPEKVNITTGTGWRGGQCVGNTGAVPRLGIKGLCLQDGPLGVRFADFVNVFPCQNAMAATFDRILVHQRGTAIGRQSRLKGVDVHLGPVVGPLGRHATGGRNWEGFSPDPYLSGKLAFEAILGVQEEGVLATIKHFIGNEQEHYRRAEEWRDGFGFKDLKDAVSSNIEDRALHELYMWPFADAVRANVGSVMCSYNYVNGTQACQNSDLLNGKLKSELGFQGFVMSDWFAQGSGVSNALAGMDMSMPGNDVDELETVFWGEQLTRMVANGTLPEARLDDMVLRILTPLIYFGIDDRTPNFSSFVDTTVGSPHPAAKHSKKVKDVITNYHLDVRDQFAANVALDSARGAVVLLFNDGILPLKNISAIGVFGVGSRLGPNGAVCGENMQCSDGALIEGWGSGTAYPTEYESPYEALHKKASLLEVSVTGTTESWDMRLPLELAGDTDVNIVYVLANSGESTANVDKNLGDRRNVSLWHNGDELINTVASQGQTVVVVTTVGQVDMTAWLNHPNISAVLLTAPAGDYGGKAIADVLFGEVNPSGKLPYTIAANTSDYIPIVTKIPRDGAPQSDFVEGIYLDYKWYDKFERTPLYEFGYGLSYTTYSFSNLHLDVKEISEFLPPRPVPVQVTKPKMTNIDIEDLYVPNDFKMIDGLVYPWILNASAPLADSQTQFPFANGAGHVSDASGGVGGHPWLWSNAVTVTHNTTNCGDVAGRVVSQLYVAFPETLIDSPPVQLRGFDKSKLLNPGESQMTEYNLNWRDLAIWDVELQSWRVQRGEYSVYIGHSSREFELCETFTL
Km [10]: 2180 µM
kcat [10]: 29.5 s⁻¹
kcat/Km [10]: 13500 M⁻¹ s⁻¹
Km [11]: 680 µM
kcat [11]: 75.6 s⁻¹
kcat/Km [11]: 111000 M⁻¹ s⁻¹
Km [12]: 1890 µM
kcat [12]: 30.9 s⁻¹
kcat/Km [12]: 16300 M⁻¹ s⁻¹
Km [13]: 430 µM
kcat [13]: 20.5 s⁻¹
kcat/Km [13]: 47700 M⁻¹ s⁻¹
Km [14]: 860 µM
kcat [14]: 32.8 s⁻¹
kcat/Km [14]: 38100 M⁻¹ s⁻¹
Km [15]: 260 µM
kcat [15]: 21.1 s⁻¹
kcat/Km [15]: 81100 M⁻¹ s⁻¹
Km [16]: 1160 µM
kcat [16]: 43.6 s⁻¹
kcat/Km [16]: 37600 M⁻¹ s⁻¹
Km [17]: 3010 µM
kcat [17]: 31.5 s⁻¹
kcat/Km [17]: 10500 M⁻¹ s⁻¹
Km [18]: 2250 µM
kcat [18]: 28.4 s⁻¹
kcat/Km [18]: 14800 M⁻¹ s⁻¹
